Tests used:
[1] = target: T1, human insulin-like growth factor 1 (IGF-1) (human, UniProt P05019 49-118); test: method not stated; affinity quoted in Example 3
T1 construct: also called hIGF-1

[2] = target: T2, human insulin-like growth factor 2 (IGF-2) (human, UniProt P01344 25-91); test: method not stated; affinity quoted in Example 3
T2 construct: also called hIGF-2

[3] = target: T1, human insulin-like growth factor 1 …; test: cell-based or functional assay
[4] = target: T2, human insulin-like growth factor 2 …; test: cell-based or functional assay

T2 sequence (P01344 25-91 limits assumed): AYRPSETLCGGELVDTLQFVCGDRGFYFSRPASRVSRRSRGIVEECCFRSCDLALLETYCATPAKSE
T1 sequence (P05019 49-118 limits assumed): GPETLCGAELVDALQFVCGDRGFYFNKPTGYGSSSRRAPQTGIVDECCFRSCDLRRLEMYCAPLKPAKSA

Kd [1]: 0.000294 µM
Kd [2]: 2 pM
IC50 (µM), inhibition of IGF-1-stimulated proliferation of MG-63 cells (CellTiter-Glo) [3]: 223 µM
IC50 (µM), inhibition of IGF-1-stimulated proliferation of RD-ES cells (CellTiter-Glo) [3]: 40 µM
IC50 (µM), inhibition of IGF-1-stimulated proliferation of SAOS2 cells (CellTiter-Glo) [3]: 177 µM
IC50 (µM), inhibition of IGF-1-stimulated proliferation of SK-ES-1 cells (CellTiter-Glo) [3]: 20 µM
IC50 (µM), inhibition of IGF-2-stimulated proliferation of MG-63 cells (CellTiter-Glo) [4]: 5.8 µM
IC50 (µM), inhibition of IGF-2-stimulated proliferation of RD-ES cells (CellTiter-Glo) [4]: 2 µM
IC50 (µM), inhibition of IGF-2-stimulated proliferation of SAOS2 cells (CellTiter-Glo) [4]: 5.3 µM
IC50 (µM), inhibition of IGF-2-stimulated proliferation of SK-ES-1 cells (CellTiter-Glo) [4]: 20 µM
B1: MEDI-573 (antibody, human IgG2, lambda, V domains shown)
VH: QVQLVQSGAEVKKPGASVKVSCKASGYTFTSYDINWVRQATGQGLEWMGWMNPNSGNTGYAQKFQGRVTMTRNTSISTAYMELSSLRSEDTAVYYCARDPYYYYYGMDVWGQGTTVTVSS
VL: QSVLTQPPSVSAAPGQKVTISCSGSSSNIENNHVSWYQQLPGTAPKLLIYDNNKRPSGIPDRFSGSKSGTSATLGITGLQTGDEADYYCETWDTSLSAGRVFGGGTKLTVLG
notes: also called mAb 7.159.2; anti-IGF antibody
